For 71 molecules, Binding affinity (RU) results are on record in patent US20250011363A1, “OPTIMIZED SHORTENED PEPTIDE THAT BINDS TO ACETYLCHOLINE RECEPTOR, AND USE THEREOF” (SKINMED CO., LTD., priority 2021, published 2025).

This assay concerns the target acetylcholine receptor. Nature of the assay: SPR, receptor immobilized on CM5 chip, peptide 10 uM. (In general: In SPR one partner is held on a chip, and binding of the other changes the refractive index at the surface.)

Molecule KRIWAR [6mer-1-873] returned a Binding affinity (RU) of 23 RU.
As to RKRVLK [6mer-1-275], the Binding affinity (RU) was determined as 123 RU.
KKLYCK [6mer-1-298]: the Binding affinity (RU) was found to be 147 RU.
On to KRWYRR [6mer-1-307], for which the Binding affinity (RU) came to 153 RU.
KRSFRR [6mer-1-317] gave a Binding affinity (RU) of 148 RU.
Regarding RRVICK [6mer-1-276], the Binding affinity (RU) amounted to 128 RU.
Turning to RKWIYK [6mer-1-326], the Binding affinity (RU) stood at 136 RU.
In turn, KRQRCR [6mer-1-295] had a Binding affinity (RU) of 148 RU.
Molecule RKLQCK [6mer-1-280] gave a Binding affinity (RU) of 149 RU.
On to KRWLQK [6mer-1-328], for which the Binding affinity (RU) stood at 151 RU.
In turn, KRRITR [6mer-1-308] returned a Binding affinity (RU) of 135 RU.
For the molecule KRANHK [6mer-1-874], the Binding affinity (RU) is 18 RU.
In turn, RRGFSK [6mer-1-297] displayed a Binding affinity (RU) of 139 RU.
Molecule KKQIRK [6mer-1-291] gave a Binding affinity (RU) of 142 RU.
Turning to RRWLYR [6mer-1-323], the Binding affinity (RU) worked out at 149 RU.
The same measure for KRGVQR [6mer-1-322]: 146 RU.
With KRVQYR [6mer-1-320], the Binding affinity (RU) worked out at 121 RU.
In turn, KRWLSK [6mer-1-299] yielded a Binding affinity (RU) of 139 RU.
For RKLISK [6mer-1-286], the Binding affinity (RU) came to 139 RU.
In the case of RKQIRK [6mer-1-316], the Binding affinity (RU) was determined as 145 RU.
RKRQLK [6mer-1-310] gave a Binding affinity (RU) of 127 RU.
For KRLLCR [6mer-1-281], the Binding affinity (RU) stood at 154 RU.
In turn, RKWRQK [6mer-1-329] came in with a Binding affinity (RU) of 123 RU.
RRWQQK [6mer-1-300] yielded a Binding affinity (RU) of 148 RU.
The same measure for RRQIQR [6mer-1-325]: 142 RU; for RKQLTK [6mer-1-290]: 146 RU; for RKQVRR [6mer-1-321]: 154 RU.
The same measure for KRIPMR [6mer-1-867]: 25 RU; for KKLYRR [6mer-1-294]: 123 RU.
The same measure for RKLYSR [6mer-1-304]: 121 RU.
Turning to KKHHAR [6mer-1-868], the Binding affinity (RU) came out at 14 RU.
KRPCHR [6mer-1-872]: the Binding affinity (RU) worked out at 23 RU.
In the case of RRWFCK [6mer-1-313], the Binding affinity (RU) was determined as 148 RU.
Molecule RKRITR [6mer-1-331] yielded a Binding affinity (RU) of 128 RU.
Take KRKDER [6mer-1-869]: the Binding affinity (RU) is 22 RU.
On to RKWLTR [6mer-1-287], for which the Binding affinity (RU) is 136 RU.
The same measure for RRRILR [6mer-1-314]: 141 RU.
The molecule KRCHFR [6mer-1-866] yielded a Binding affinity (RU) of 26 RU.
With RKQYCK [6mer-1-303], the Binding affinity (RU) came to 123 RU.
The same measure for KKSRRK [6mer-1-318]: 145 RU.
RRSILR [6mer-1-301]: the Binding affinity (RU) amounted to 154 RU.
For the molecule RRGQSR [6mer-1-302], the Binding affinity (RU) came out at 151 RU.
Regarding RKRVCK [6mer-1-293], the Binding affinity (RU) is 154 RU.
As for RRRRLR [6mer-1-334], the Binding affinity (RU) worked out at 154 RU.
The same measure for RRLRYR [6mer-1-279]: 145 RU; for RKQQTK [6mer-1-315]: 128 RU; for KKGLCR [6mer-1-277]: 141 RU.
Turning to KKSRQK [6mer-1-312], the Binding affinity (RU) stood at 151 RU.
Molecule KKWVQK [6mer-1-283] gave a Binding affinity (RU) of 133 RU.
As for KKVQQR [6mer-1-288], the Binding affinity (RU) worked out at 148 RU.
In turn, RKWQTK [6mer-1-292] gave a Binding affinity (RU) of 122 RU.
With KRQQTR [6mer-1-278], the Binding affinity (RU) came out at 142 RU.
As to KRSRQK [6mer-1-284], the Binding affinity (RU) was determined as 145 RU.
The molecule RRGYQK [6mer-1-311] gave a Binding affinity (RU) of 127 RU.
The molecule KKRVQK [6mer-1-332] showed a Binding affinity (RU) of 122 RU.
The same measure for RKRQSR [6mer-1-333]: 135 RU; for KRGITR [6mer-1-327]: 139 RU.
RRRRYR [6mer-1-282] displayed a Binding affinity (RU) of 121 RU.
As to KRWVQR [6mer-1-285], the Binding affinity (RU) stood at 122 RU.
Regarding KKTNGR [6mer-1-875], the Binding affinity (RU) was 33 RU.
The molecule RKSIRR [6mer-1-296] registered a Binding affinity (RU) of 121 RU.
The molecule RKVQRK [6mer-1-330] returned a Binding affinity (RU) of 148 RU.
As for KREWDR [6mer-1-871], the Binding affinity (RU) is 30 RU.
The molecule RKWISR [6mer-1-305] came in with a Binding affinity (RU) of 153 RU.
As to KKGICK [6mer-1-309], the Binding affinity (RU) is 153 RU.
With KRMSHR [6mer-1-870], the Binding affinity (RU) came out at 25 RU.
KKLFYR [6mer-1-306] yielded a Binding affinity (RU) of 135 RU.
Take RRLQRR [6mer-1-324]: the Binding affinity (RU) came to 128 RU.
As to KRWVQK [6mer-1-319], the Binding affinity (RU) is 123 RU.
Regarding KRLLYK [6mer-1-274], the Binding affinity (RU) was determined as 135 RU.
RKRYYR [6mer-1-289]: the Binding affinity (RU) came out at 153 RU.
